Consider twelve molecules from patent US20230167164A1 (IMMUNOWAKE, published 2023).

Positions count from the first letter of the chain named. Names may count otherwise.

For one assay, the target named is T1, CD8 on CD8+ T cells (human, UniProt P01732 22-235).
T1 construct: whole, on cells
Briefly: FACS on CD8+ T cells.

The next assay addresses IL-23 receptor complex (UniProt P42701 24-662; Q5VWK5 24-629, limits assumed). The assay is described as follows: cell-based or functional assay.
The target in assay [1] is T2, human PD-1 (human, UniProt Q15116 25-167, limits assumed).
T2 construct: nivolumab is called an anti-human PD-1 antibody; also called hPD-1
T2 sequence (Q15116 25-167 limits assumed): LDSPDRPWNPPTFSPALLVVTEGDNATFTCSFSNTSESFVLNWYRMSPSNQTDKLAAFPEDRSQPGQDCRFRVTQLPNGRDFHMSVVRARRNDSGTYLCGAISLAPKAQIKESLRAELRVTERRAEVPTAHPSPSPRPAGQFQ
The assay is described as follows: PD-L2-Fc format, calibrated on PD-L2(wt)-Fc binding affinity.

The target in the next assay is T3, mouse PD-1 (mouse, UniProt Q02242 25-167, limits assumed).
T3 construct: also called mPD-1
T3 sequence (looked up): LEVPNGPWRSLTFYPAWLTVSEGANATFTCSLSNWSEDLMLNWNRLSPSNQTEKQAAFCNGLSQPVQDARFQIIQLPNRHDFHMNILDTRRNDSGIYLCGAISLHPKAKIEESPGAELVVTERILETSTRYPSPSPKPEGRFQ
Described as above.

In assay [2] the target is T2, human PD-1. Briefly: Biacore and cell-based assays, calibrated by wildtype nivolumab binding affinity. For orientation: SPR reads the build-up and loss of mass on a sensor chip optically.
The target of a further assay is T4, human CD4 on cells (human, UniProt P01730 26-458).
T4 construct: whole, on cells; also called CD4+ T cells; HEK-CD4-IFN-γ cells
The assay is described as follows: FACS on CD4+ T cells.

The target in assay [3] is human IL-12 receptor complex (human, UniProt P42701 24-662; Q99665 24-862). Briefly: cell-based or functional assay.
Sequence of human IL-12 receptor complex (Q99665 24-862, chain 2 of 2, other chains not shown): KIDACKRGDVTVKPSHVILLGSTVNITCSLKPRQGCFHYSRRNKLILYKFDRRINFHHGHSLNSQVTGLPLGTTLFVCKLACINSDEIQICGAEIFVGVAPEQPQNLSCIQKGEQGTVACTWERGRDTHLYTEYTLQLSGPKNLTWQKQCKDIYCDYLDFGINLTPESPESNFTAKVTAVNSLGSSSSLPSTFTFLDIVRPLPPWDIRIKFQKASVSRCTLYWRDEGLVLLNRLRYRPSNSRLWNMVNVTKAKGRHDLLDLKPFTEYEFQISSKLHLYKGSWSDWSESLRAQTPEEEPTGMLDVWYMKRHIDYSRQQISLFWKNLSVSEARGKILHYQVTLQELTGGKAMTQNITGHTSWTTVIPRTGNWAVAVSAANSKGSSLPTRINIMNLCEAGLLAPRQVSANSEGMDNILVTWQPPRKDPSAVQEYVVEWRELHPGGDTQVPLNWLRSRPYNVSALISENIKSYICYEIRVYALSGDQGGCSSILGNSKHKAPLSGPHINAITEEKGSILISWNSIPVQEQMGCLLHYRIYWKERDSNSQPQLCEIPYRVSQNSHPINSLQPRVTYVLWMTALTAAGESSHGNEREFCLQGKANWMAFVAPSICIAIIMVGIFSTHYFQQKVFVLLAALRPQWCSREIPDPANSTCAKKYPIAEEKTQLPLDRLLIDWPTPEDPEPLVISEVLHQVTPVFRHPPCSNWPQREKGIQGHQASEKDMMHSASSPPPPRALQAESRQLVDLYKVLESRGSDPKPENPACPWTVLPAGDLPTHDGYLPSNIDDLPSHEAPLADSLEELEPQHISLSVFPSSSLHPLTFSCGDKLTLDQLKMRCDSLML

Sequence of IL-23 receptor complex (Q5VWK5 24-629 limits assumed, chain 2 of 2, other chains not shown): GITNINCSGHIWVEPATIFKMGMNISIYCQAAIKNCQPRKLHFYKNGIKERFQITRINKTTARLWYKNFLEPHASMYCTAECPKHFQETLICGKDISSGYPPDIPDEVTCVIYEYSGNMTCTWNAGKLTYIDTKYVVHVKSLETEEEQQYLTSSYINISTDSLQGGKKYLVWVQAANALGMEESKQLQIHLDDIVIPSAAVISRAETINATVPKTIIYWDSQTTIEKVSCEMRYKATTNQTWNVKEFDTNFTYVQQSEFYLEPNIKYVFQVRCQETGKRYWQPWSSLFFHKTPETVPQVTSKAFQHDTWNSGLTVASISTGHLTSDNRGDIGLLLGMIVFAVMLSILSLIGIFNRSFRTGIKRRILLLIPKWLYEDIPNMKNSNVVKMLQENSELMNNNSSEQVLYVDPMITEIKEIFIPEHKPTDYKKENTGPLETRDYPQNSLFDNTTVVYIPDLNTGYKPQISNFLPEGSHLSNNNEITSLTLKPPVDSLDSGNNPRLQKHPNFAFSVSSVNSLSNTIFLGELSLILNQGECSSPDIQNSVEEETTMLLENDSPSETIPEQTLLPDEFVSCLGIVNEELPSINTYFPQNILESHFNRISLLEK
T1 sequence (P01732 22-235): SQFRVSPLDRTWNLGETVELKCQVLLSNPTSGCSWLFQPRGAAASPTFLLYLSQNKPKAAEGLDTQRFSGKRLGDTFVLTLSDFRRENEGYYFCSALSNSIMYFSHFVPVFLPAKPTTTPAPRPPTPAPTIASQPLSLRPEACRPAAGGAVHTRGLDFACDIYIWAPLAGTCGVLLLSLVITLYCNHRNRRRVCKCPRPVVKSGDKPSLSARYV

B1: Fab-IL-23(E59A/F60A)-Fc-CD4 Ab (other)
heavy 1: QVQLQQSGPEVVKPGASVKMSCKASGYTFTSYVIHWVRQKPGQGLDWIGYINPYNDGTDYDEKFKGKATLTSDTSTSTAYMELSSLRSEDTAVYYCAREKDNYATGAWFAYWGQGTLVTVSSASTKGPSVFPLAPSSKSTSGGTAALGCLVKDYFPEPVTVSWNSGALTSGVHTFPAVLQSSGLYSLSSVVTVPSSSLGTQTYICNVNHKPSNTKVDKKVEPKSCDKPGSGIWELKKDVYVVELDWYPDAPGEMVVLTCDTPEEDGITWTLDQSSEVLGSGKTLTIQVKAAGDAGQYTCHKGGEVLSHSLLLLHKKEDGIWSTDILKDQKEPKNKTFLRCEAKNYSGRFTCWWLTTISTDLTFSVKSSRGSSDPQGVTCGAATLSAERVRGDNKEYEYSVECQEDSACPAAEESLPIEVMVDAVHKLKYENYTSSFFIRDIIKPDPPKNLQLKPLKNSRQVEVSWEYPDTWSTPHSYFSLTFCVQVQGKSKREKKDRVFTDKTSATVICRKNASISVRAQDRYYSSSWSEWASVPCSGGGGSGGGGSGGGGSGGGGSGRAVPGGSSPAWTQCQQLSQKLCTLAWSAHPLVGHMDLREEGDEETTNDVPHIQCGDGCDPQGLRDNSQFCLQRIHQGLIFYEKLLGSDIFTGEPSLLPDSPVGQLHASLLGLSQLLQPEGHHWETQQIPSLSPSQPWQRLLLRFKILRSLQAFVAVAARVFAHGAATLSPDKTHTCPPCPAPEDEGGPSVFLFPPKPKDTLMISRTPEVTCVVVDVSHEDPEVKFNWYVDGVEVHNAKTKPREEQYNSTYRVVSVLTVLHQDWLNGKEYKCKVSNKALPAPIEKTISKAKGQPREPQVYVYPPSREEMTKNQVSLTCLVKGFYPSDIAVEWESNGQPENNYKTTPPVLDEDGSFALVSKLTVDKSRWQQGNVFSCSVMHEALHNHYTQKSLSLSPGK
heavy 2: QVQLQQSGPEVVKPGASVKMSCKASGYTFTSYVIHWVRQKPGQGLDWIGYINPYNDGTDYDEKFKGKATLTSDTSTSTAYMELSSLRSEDTAVYYCAREKDNYATGAWFAYWGQGTLVTVSSASTKGPSVFPLAPSSKSTSGGTAALGCLVKDYFPEPVTVSWNSGALTSGVHTFPAVLQSSGLYSLSSVVTVPSSSLGTQTYICNVNHKPSNTKVDKKVEPKSCDKTHTCPPCPAPEKKGGPSVFLFPPKPKDTLMISRTPEVTCVVVDVSHEDPEVKFNWYVDGVEVHNAKTKPREEQYNSTYRVVSVLTVLHQDWLNGKEYKCKVSNKALPAPIEKTISKAKGQPREPQVYVLPPSREEMTKNQVSLLCLVKGFYPSDIAVEWESNGQPENRYMTWPPVLDSDGSFFLYSKLTVDKSRWQQGNVFSCSVMHEALHNHYTQKSLSLSPGK
light: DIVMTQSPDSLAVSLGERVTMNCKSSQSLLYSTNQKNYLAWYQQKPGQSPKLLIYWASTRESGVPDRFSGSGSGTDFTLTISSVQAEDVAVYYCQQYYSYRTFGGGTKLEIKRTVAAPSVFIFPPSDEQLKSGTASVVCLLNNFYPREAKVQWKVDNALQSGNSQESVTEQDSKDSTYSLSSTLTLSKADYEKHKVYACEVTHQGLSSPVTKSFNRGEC
Take B1: the binding result in the assay with CD8 on CD8+ T cells is on record as “no binding”. The “IFN-γ release, % of rIL-23, activated CD8+ T cells” value with IL-23 receptor complex came to 0%.

B2: PD-L2(mut1)-Fc (Fc fusion)
chain 1: LFTVTVPKELYIIEHGSNVTLECNFDTGSHVNLGAIVASLQKVENDTSPHRERATLLEEQLPLGKASFHIPQVQVRDEGQYQCIIIYGVAWDYKYLTLKVKASYRKINTHILKVPETDEVELTCQATGYPLAEVSWPNVSVPANTSHSRTPEGLYQVTSVLRLKPPPGRNFSCVFWNTHVRELTLASIDLQSQMEPRTHPTDKTHTCPPCPAPEDEGGPSVFLFPPKPKDTLMISRTPEVTCVVVDVSHEDPEVKFNWYVDGVEVHNAKTKPREEQYNSTYRVVSVLTVLHQDWLNGKEYKCKVSNKALPAPIEKTISKAKGQPREPQVYVYPPSREEMTKNQVSLTCLVKGFYPSDIAVEWESNGQPENNYKTTPPVLDEDGSFALVSKLTVDKSRWQQGNVFSCSVMHEALHNHYTQKSLSLSPGK
chain 2: B2 chain 1 with D215K, E216K, Y332L, T347L, N371R, K373M, T375W, E381S, A386F, V388Y
notes: also called T56V
One may read the Kd as the equilibrium constant for the complex coming apart. Read a low Kd as a tighter complex. Regarding B2, the Kd in the assay with human PD-1 [1] is 520 nM; in the assay with mouse PD-1 it was 430 nM.

B3: PD-L2(mut2)-Fc (Fc fusion)
chain 1: B2 chain 1 with V37T, S39V
chain 2: LFTVTVPKELYIIEHGSNVTLECNFDTGSHVNLGAITAVLQKVENDTSPHRERATLLEEQLPLGKASFHIPQVQVRDEGQYQCIIIYGVAWDYKYLTLKVKASYRKINTHILKVPETDEVELTCQATGYPLAEVSWPNVSVPANTSHSRTPEGLYQVTSVLRLKPPPGRNFSCVFWNTHVRELTLASIDLQSQMEPRTHPTDKTHTCPPCPAPEKKGGPSVFLFPPKPKDTLMISRTPEVTCVVVDVSHEDPEVKFNWYVDGVEVHNAKTKPREEQYNSTYRVVSVLTVLHQDWLNGKEYKCKVSNKALPAPIEKTISKAKGQPREPQVYVLPPSREEMTKNQVSLLCLVKGFYPSDIAVEWESNGQPENRYMTWPPVLDSDGSFFLYSKLTVDKSRWQQGNVFSCSVMHEALHNHYTQKSLSLSPGK
notes: also called PD-L2(S58V)
In the case of B3, the Kd with human PD-1 [1] stood at 350 nM; with mouse PD-1, 230 nM.

B4: PD-L2(mut3)-Fc (Fc fusion)
chain 1: B2 chain 1 with V37T, Q41L
chain 2: B3 chain 2 with V39S, Q41L
notes: also called Q60L
For the molecule B4, the Kd came to 490 nM with human PD-1 [1] and 320 nM with mouse PD-1.

B5: PD-L2(mut4)-Fc (Fc fusion)
chain 1: B2 chain 1 with S39V, Q41L
chain 2: B3 chain 2 with T37V, Q41L
notes: also called PD-L2(T56V/S58V/Q60L)
Consider B5, for which the Kd with human PD-1 [1] came out at 255 nM; with mouse PD-1, 220 nM.

B6: anti-PD-1 antibody HC-CDR3(D100G) (antibody, IgG1, V domains shown)
VH: QVQLVESGGGVVQPGRSLRLDCKASGITFSNSGMHWVRQAPGKGLEWVAVIWYDGSKRYYADSVKGRFTISRDNSKNTLFLQMNSLRAEDTAVYYCATNGDYWGQGTLVTVSS
VL: EIVLTQSPATLSLSPGERATLSCRASQSVSSYLAWYQQKPGQAPRLLIYDASNRATGIPARFSGSGSGTDFTLTISSLEPEDFAVYYCQQSSNWPRTFGQGTKVEIKR
notes: heterodimeric IgG1 as the WT antibody
The molecule B6 returned a Kd with human PD-1 [2] of 130 nM.

B7: anti-PD-1 antibody HC-CDR3(D100R) (antibody, IgG1, V domains shown)
VH: B6 VH with G100R
VL: B6 VL
notes: as for B6
In the assay with human PD-1 [2], B7 registered a Kd of 910 nM.

B8: anti-PD-1 antibody HC-CDR3(D100N) (antibody, IgG1, V domains shown)
VH: B6 VH with G100N
VL: B6 VL
notes: as for B6
For B8, binding with human PD-1 [2] was put at a Kd of 25 nM.

B9: anti-PD-1 antibody HC-CDR3(N99G) (antibody, IgG1, V domains shown)
VH: B6 VH with N99G, G100D
VL: B6 VL
notes: as for B6
B9 showed a Kd with human PD-1 [2] of 2300 nM.

B10: Fab-IL-12(WT)-Fc-CD8 Ab (other)
heavy 1: EVQLQQSGPELVKPGASVKMSCKASGYTFTDYYMKWVKQSHGKSLEWIGHINPNNDDTFYTQKFKGRATLTVDKSSSTAYMQLNSLTSEDSAVYYCVRDDYDGGWFAYWGQGTLVTVSSASTKGPSVFPLAPSSKSTSGGTAALGCLVKDYFPEPVTVSWNSGALTSGVHTFPAVLQSSGLYSLSSVVTVPSSSLGTQTYICNVNHKPSNTKVDKKVEPKSCDKPGSGIWELKKDVYVVELDWYPDAPGEMVVLTCDTPEEDGITWTLDQSSEVLGSGKTLTIQVKEFGDAGQYTCHKGGEVLSHSLLLLHKKEDGIWSTDILKDQKEPKNKTFLRCEAKNYSGRFTCWWLTTISTDLTFSVKSSRGSSDPQGVTCGAATLSAERVRGDNKEYEYSVECQEDSACPAAEESLPIEVMVDAVHKLKYENYTSSFFIRDIIKPDPPKNLQLKPLKNSRQVEVSWEYPDTWSTPHSYFSLTFCVQVQGKSKREKKDRVFTDKTSATVICRKNASISVRAQDRYYSSSWSEWASVPCSGGGGSGGGGSGGGGSGGGGSGRNLPVATPDPGMFPCLHHSQNLLRAVSNMLQKARQTLEFYPCTSEEIDHEDITKDKTSTVEACLPLELTKNESCLNSRETSFITNGSCLASRKTSFMMALCLSSIYEDLKMYQVEFKTMNAKLLMDPKRQIFLDQNMLAVIDELMQALNFNSETVPQKSSLEEPDFYKTKIKLCILLHAFRIRAVTIDRVMSYLNASDKTHTCPPCPAPEDEGGPSVFLFPPKPKDTLMISRTPEVTCVVVDVSHEDPEVKFNWYVDGVEVHNAKTKPREEQYNSTYRVVSVLTVLHQDWLNGKEYKCKVSNKALPAPIEKTISKAKGQPREPQVYVYPPSREEMTKNQVSLTCLVKGFYPSDIAVEWESNGQPENNYKTTPPVLDEDGSFALVSKLTVDKSRWQQGNVFSCSVMHEALHNHYTQKSLSLSPGK
heavy 2: EVQLQQSGPELVKPGASVKMSCKASGYTFTDYYMKWVKQSHGKSLEWIGHINPNNDDTFYTQKFKGRATLTVDKSSSTAYMQLNSLTSEDSAVYYCVRDDYDGGWFAYWGQGTLVTVSSASTKGPSVFPLAPSSKSTSGGTAALGCLVKDYFPEPVTVSWNSGALTSGVHTFPAVLQSSGLYSLSSVVTVPSSSLGTQTYICNVNHKPSNTKVDKKVEPKSCDKTHTCPPCPAPEKKGGPSVFLFPPKPKDTLMISRTPEVTCVVVDVSHEDPEVKFNWYVDGVEVHNAKTKPREEQYNSTYRVVSVLTVLHQDWLNGKEYKCKVSNKALPAPIEKTISKAKGQPREPQVYVLPPSREEMTKNQVSLLCLVKGFYPSDIAVEWESNGQPENRYMTWPPVLDSDGSFFLYSKLTVDKSRWQQGNVFSCSVMHEALHNHYTQKSLSLSPGK
light: DIQMTQTTSSLSASLGDRVTISCRASQDINNYLNWYQQKSDGTIKLLIYYTSRSYSGVPSRFSGSGSGTDYSLTISNRRQEDIATYFCQQGKTLPWTFGGGTKLEIKRTVAAPSVFIFPPSDEQLKSGTASVVCLLNNFYPREAKVQWKVDNALQSGNSQESVTEQDSKDSTYSLSSTLTLSKADYEKHKVYACEVTHQGLSSPVTKSFNRGEC
Take B10: in the assay with human CD4 on cells, the binding result was “no binding”. In assay [3], the “IFN-γ release, % of rIL-12, activated CD4+ T cells” value came to 21%.

B11: Fab-IL-12(E59A)-Fc-CD8 Ab (other)
heavy 1: B10 heavy 1 with E287A
heavy 2: B10 heavy 2
light: B10 light
Regarding B11, the binding result with human CD4 on cells is recorded as “no binding”. In addition, the “IFN-γ release, % of rIL-12, activated CD4+ T cells” value in assay [3] turned out to be 2.1%.

B12: Fab-IL-12(E59A/F60A)-Fc-CD8 Ab (other)
heavy 1: B10 heavy 1 with E287A, F288A
heavy 2: B10 heavy 2
light: B10 light
For the molecule B12, the binding result with human CD4 on cells is given as “no binding”. Also, the “IFN-γ release, % of rIL-12, activated CD4+ T cells” value in assay [3] worked out at 0%.
